Laboratory results as given in US20210292396A1 (INTERNATIONAL AIDS VACCINE INITIATIVE, published 2021).
Where a chain is given by its changes, count along the chain named.

Legend:
Assay in all cases: cell-based or functional assay
[1] = biological target: HIV Env of isolate SC05_8C11_2344 (HIV)
[2] = biological target: HIV Env of isolate Q769.d22 (HIV)
[3] = biological target: HIV Env of isolate Ce0393_C3 (HIV)
[4] = biological target: HIV Env of isolate Du172.17 (HIV)
[5] = biological target: HIV Env of isolate HIV-0013095-2.11 (HIV)
[6] = biological target: HIV Env of isolate 235-47 (HIV)
[7] = biological target: HIV Env of isolate 6545.v4.c1 (HIV)
[8] = biological target: HIV Env of isolate ZM233M.PB6 (HIV)
[9] = biological target: HIV Env of isolate BJOX025000.01.1 (HIV)
[10] = biological target: HIV Env of isolate WEAU_d15_410_5017 (HIV)
[11] = biological target: HIV Env of isolate 62357_14_D3_4589 (HIV)
[12] = biological target: HIV Env of isolate ZM247v1(Rev-) (HIV)
[13] = biological target: HIV Env of isolate Ce1172_H1 (HIV)
[14] = biological target: HIV Env of isolate 1054_07_TC4_1499 (HIV)
[15] = biological target: HIV Env of isolate ZM135M.PL10a (HIV)
[16] = biological target: HIV Env of isolate Ce2060_G9 (HIV)
[17] = biological target: HIV Env of isolate 6041.v3.c23 (HIV)
[18] = biological target: HIV Env of isolate HIV-16055-2.3 (HIV)
[19] = biological target: HIV Env of isolate 249M_B10 (HIV)
[20] = biological target: HIV Env of isolate HIV-0013095-2.11 (HIV); remark: listed apart in the source
[21] = biological target: HIV Env of isolate ZM214M.PL15 (HIV)
[22] = biological target: HIV Env of isolate T278-50 (HIV)
[23] = biological target: HIV Env of isolate 235-47 (HIV); remark: listed apart in the source
[24] = biological target: HIV Env of isolate P0402_C2_11 (HIV)
[25] = biological target: HIV Env of isolate Ce1176_A3 (HIV)
[26] = biological target: HIV Env of isolate BJOX028000.10.3 (HIV)
[27] = biological target: HIV Env of isolate X2088_c9 (HIV)
[28] = biological target: HIV Env of isolate 0260.v5.c36 (HIV)
[29] = biological target: HIV Env of isolate Du422.1 (HIV)
[30] = biological target: HIV Env of isolate WEAU_d15_410_5017 (HIV); remark: listed apart in the source
[31] = biological target: HIV Env of isolate 6540.v4.c1 (HIV)
[32] = biological target: HIV Env of isolate 62357_14_D3_4589 (HIV); remark: listed apart in the source
[33] = biological target: HIV Env of isolate P1981_C5_3 (HIV)
HIV Env of isolate CNE19 = HIV Env of isolate CNE19 (HIV)
[34] = biological target: HIV Env of isolate AC10.0.29 (HIV)
[35] = biological target: HIV Env of isolate 231965.c01 (HIV)
[36] = biological target: HIV Env of isolate ZM249M.PL1 (HIV)
[37] = biological target: HIV Env of isolate HIV-001428-2.42 (HIV)
HIV Env of isolate CNE20 = HIV Env of isolate CNE20 (HIV)
[38] = biological target: HIV Env of isolate TRO.11 (HIV)
[39] = biological target: HIV Env of isolate 6811.v7.c18 (HIV)
[40] = biological target: HIV Env of isolate BJOX009000.02.4 (HIV)
[41] = biological target: HIV Env of isolate 0815.v3.c3 (HIV)
HIV Env of isolate CNE17 = HIV Env of isolate CNE17 (HIV)
[42] = biological target: HIV Env of isolate X1193_c1 (HIV)

B1: ePGT121.15.H1.L1 (antibody, V domains shown)
VH: QMQLQESGPGLVKPGETLSLTCSVSGASISSSYWSWLRETPGKGLEWIGYTHHSGDTNYAPSLKSRVHLGLHPSKNQVSLSLTSVTAADTAVYYCARTLHGRRIYGVVAFNEWFTYFYWEVWGNGTQVTVSS
VL: SDISVAPGETVRISCGGESIGSRAVQWYQHRAGQAPKLIIYNNQDRPPGIPERFSGSPDIDFGTTATLTITNVEAGDEATYYCHIWDSRRPTNWVFGGGTTLTVL
[1]
  neutralization IC50: 0.0009 mg/L
[2]
  neutralization IC50: > 50 mg/L
[3]
  neutralization IC50: > 50 mg/L
[4]
  neutralization IC50: 0.0002 mg/L
[5]
  neutralization IC50: 0.0001 mg/L
[6]
  neutralization IC50: 0.0019 mg/L
[7]
  neutralization IC50: > 50 mg/L
[8]
  neutralization IC50: 0.0124 mg/L
[9]
  neutralization IC50: > 50 mg/L
[10]
  neutralization IC50: 0.0001 mg/L
[11]
  neutralization IC50: 0.004 mg/L
[12]
  neutralization IC50: 0.0003 mg/L
[13]
  neutralization (Table 6 value): 0.00075
[14]
  neutralization (Table 6 value): 0.00167
[15]
  neutralization (Table 6 value): 0.11
[16]
  neutralization (Table 6 value): 0.0102
[17]
  neutralization (Table 6 value): 0.396
[18]
  neutralization (Table 6 value): 1.07
[19]
  neutralization (Table 6 value): 0.00639
[20]
  neutralization (Table 6 value): 1.07
[21]
  neutralization (Table 6 value): 0.0146
[22]
  neutralization (Table 6 value): 0.0232
[23]
  neutralization (Table 6 value): 0.0061
[24]
  neutralization (Table 6 value): 0.00268
[25]
  neutralization (Table 6 value): 0.00282
[26]
  neutralization (Table 6 value): 0.0278
[27]
  neutralization (Table 6 value): 0.00147
[28]
  neutralization (Table 6 value): 0.00247
[29]
  neutralization (Table 6 value): 0.00243
[30]
  neutralization (Table 6 value): 0.00209
[31]
  neutralization (Table 6 value): 0.249
[32]
  neutralization (Table 6 value): 0.00982
[33]
  neutralization (Table 6 value): 0.00069
HIV Env of isolate CNE19
  neutralization (Table 6 value): 0.00103
[34]
  neutralization (Table 6 value): 0.00272
[35]
  neutralization (Table 6 value): 0.68
[36]
  neutralization (Table 6 value): 0.00404
[37]
  neutralization (Table 6 value): 0.00153
HIV Env of isolate CNE20
  neutralization (Table 6 value): 0.000933
[38]
  neutralization (Table 6 value): 0.00156
[39]
  neutralization (Table 6 value): 0.00109
[40]
  neutralization (Table 6 value): 0.0255
[41]
  neutralization (Table 6 value): 0.00167
HIV Env of isolate CNE17
  neutralization (Table 6 value): 0.0106
[42]
  neutralization (Table 6 value): 0.000256

B2: ePGT121.15.H6.L1 (antibody, V domains shown)
VH: B1 VH with W113F, N124K
VL: B1 VL
[13]
  neutralization (Table 6 value): 0.000952
[14]
  neutralization (Table 6 value): 0.00129
[15]
  neutralization (Table 6 value): 0.168
[16]
  neutralization (Table 6 value): 0.0369
[17]
  neutralization (Table 6 value): 0.417
[18]
  neutralization (Table 6 value): 0.635
[19]
  neutralization (Table 6 value): 0.0118
[20]
  neutralization (Table 6 value): 0.635
[21]
  neutralization (Table 6 value): 0.00993
[22]
  neutralization (Table 6 value): 0.0263
[23]
  neutralization (Table 6 value): 0.00363
[24]
  neutralization (Table 6 value): 0.0015
[25]
  neutralization (Table 6 value): 0.00302
[26]
  neutralization (Table 6 value): 0.00171
[27]
  neutralization (Table 6 value): 0.00108
[28]
  neutralization (Table 6 value): 0.00217
[29]
  neutralization (Table 6 value): 0.00264
[30]
  neutralization (Table 6 value): 0.00205
[31]
  neutralization (Table 6 value): 0.612
[32]
  neutralization (Table 6 value): 0.0132
[33]
  neutralization (Table 6 value): 0.000543
HIV Env of isolate CNE19
  neutralization (Table 6 value): 0.000806
[34]
  neutralization (Table 6 value): 0.00278
[35]
  neutralization (Table 6 value): 1.27
[36]
  neutralization (Table 6 value): 0.0127
[37]
  neutralization (Table 6 value): 0.00181
HIV Env of isolate CNE20
  neutralization (Table 6 value): 0.00133
[38]
  neutralization (Table 6 value): 0.0014
[39]
  neutralization (Table 6 value): 0.00114
[40]
  neutralization (Table 6 value): 0.0166
[41]
  neutralization (Table 6 value): 0.00022
HIV Env of isolate CNE17
  neutralization (Table 6 value): 0.0101
[42]
  neutralization (Table 6 value): 0.000518

B3: PGT-121 (antibody, V domains shown)
VH: QMQLQESGPGLVKPSETLSLTCSVSGASISDSYWSWIRRSPGKGLEWIGYVHKSGDTNYSPSLKSRVNLSLDTSKNQVSLSLVAATAADSGKYYCARTLHGRRIYGIVAFNEWFTYFYMDVWGNGTQVTVSS
VL: SDISVAPGETARISCGEKSLGSRAVQWYQHRAGQAPSLIIYNNQDRPSGIPERFSGSPDSPFGTTATLTITSVEAGDEADYYCHIWDSRVPTKWVFGGGTTLTVLG
[1]
  neutralization IC50: 0.019 mg/L
[2]
  neutralization IC50: > 50 mg/L
[3]
  neutralization IC50: > 50 mg/L
[4]
  neutralization IC50: 0.033 mg/L
[5]
  neutralization IC50: > 50 mg/L
[6]
  neutralization IC50: 0.137 mg/L
[7]
  neutralization IC50: > 50 mg/L
[8]
  neutralization IC50: 3.69 mg/L
[9]
  neutralization IC50: > 50 mg/L
[10]
  neutralization IC50: 0.026 mg/L
[11]
  neutralization IC50: 2.6 mg/L
[12]
  neutralization IC50: 0.028 mg/L
[13]
  neutralization (Table 6 value): 0.00693
[14]
  neutralization (Table 6 value): 0.0334
[15]
  neutralization (Table 6 value): 1.32
[21]
  neutralization (Table 6 value): 0.119
[23]
  neutralization (Table 6 value): 0.0457
[24]
  neutralization (Table 6 value): 0.000423
[25]
  neutralization (Table 6 value): 0.00882
[27]
  neutralization (Table 6 value): 0.00214
[28]
  neutralization (Table 6 value): 0.00144
[29]
  neutralization (Table 6 value): 0.00172
[30]
  neutralization (Table 6 value): 0.0144
[32]
  neutralization (Table 6 value): 0.392
[33]
  neutralization (Table 6 value): 0.00146
HIV Env of isolate CNE19
  neutralization (Table 6 value): 0.00315
[34]
  neutralization (Table 6 value): 0.029
[37]
  neutralization (Table 6 value): 0.0111
HIV Env of isolate CNE20
  neutralization (Table 6 value): 0.00147
[38]
  neutralization (Table 6 value): 0.00843
[39]
  neutralization (Table 6 value): 0.00125
[40]
  neutralization (Table 6 value): 0.243
[41]
  neutralization (Table 6 value): 7.9e-05
HIV Env of isolate CNE17
  neutralization (Table 6 value): 0.225
[42]
  neutralization (Table 6 value): 0.000417
